Experimental data published in patent US20220389097A1 (Genentech, published 2022).
Positions count from the first letter of the chain named. In names and notes the source's numbering stands. Where no end group is shown, it is not given here.

Legend:
human TREM2 on cells [1] = target: T1, human TREM2 on cells (human, UniProt Q9NZC2 19-230); test: cell-based or functional assay
T1 sequence: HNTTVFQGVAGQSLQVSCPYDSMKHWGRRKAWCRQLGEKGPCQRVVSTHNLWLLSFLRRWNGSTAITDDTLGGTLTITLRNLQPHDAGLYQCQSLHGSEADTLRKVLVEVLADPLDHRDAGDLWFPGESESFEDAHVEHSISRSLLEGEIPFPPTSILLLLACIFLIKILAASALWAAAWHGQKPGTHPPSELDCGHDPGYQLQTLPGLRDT

human TREM2 on cells [2] = target: T1, human TREM2 on cells; test: cell-based or functional assay; remark: listed apart in the source
[3] = target: T2, TREM2 peptide residues 148 to 165 (human); test: crystal structure of the complex
T2 construct: Peptide of the crystal structures
T2 peptide: ESFEDAHVEHSISRSLLE

[4] = target: T3, soluble human TREM2 (sTREM2) (human, UniProt Q9NZC2 19-157); test: sandwich ELISA: antibody coated as capture, sTREM2 from BMDM supernatant, biotinylated 3.17A9 detection
T3 construct: also called soluble TREM2; TREM2 ectodomain
T3 sequence: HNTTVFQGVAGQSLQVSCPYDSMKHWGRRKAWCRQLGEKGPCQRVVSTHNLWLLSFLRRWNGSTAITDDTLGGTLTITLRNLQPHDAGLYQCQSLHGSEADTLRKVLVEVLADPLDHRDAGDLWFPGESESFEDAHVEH
Description: A human TREM2 ELISA assay was used to measure binding of more than forty antibodies to soluble TREM2 (sTREM2) as follows: test anti-hTREM2 antibodies were coated onto plate wells as capture reagents and a biotinylated IgV-reactive monoclonal antibody, 3.17A9, was used as the detection reagent. Antibody 1.16B8 was used as a control antibody to establish the standard for sTREM2 binding. Plates coated with test or control antibody were incubated with diluted culture supernatant from bone marrow-derived macrophage (BMDM) cultures from transgenic mice expressing hTREM2. sTREM2 is constitutively produced by the BMDM cultures expressing hTREM2 and shed into the culture supernatant. Measurements were recorded at 450 nm for detection and 570 nm for background. The 3.17A9/1.16B8 antibody pair was selected over reagents provided in the R&D Systems kit as the commercial reagents were not compatible with sTREM2 detection of some of the antibodies tested. Control antibody 1.16B8 light chain sequence is shown in SEQ ID NO: 170, and its heavy chain sequence is shown in SEQ ID NO: 171.

[5] = target: T4, soluble monomeric human TREM2 (human, UniProt Q9NZC2 19-174, limits assumed); test: SPR (Biacore 8K) at 37 C, mutant IgG captured on anti-human Fab chip, soluble monomeric TREM2 as analyte, off-rate screen
T4 construct: Not the same as shed sTREM2; also called soluble monomeric TREM2
T4 sequence: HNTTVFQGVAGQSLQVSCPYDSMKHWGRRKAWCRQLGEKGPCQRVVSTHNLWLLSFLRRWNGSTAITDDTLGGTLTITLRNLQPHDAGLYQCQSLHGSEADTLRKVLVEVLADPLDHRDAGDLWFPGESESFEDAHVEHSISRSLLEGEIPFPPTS

[6] = target: T4, soluble monomeric human TREM2; test: SPR (Biacore 8K); mutant IgG on anti-human Fab chip, soluble monomeric TREM2
Excerpt: The resulting library consists of individual IgG clones, each with one mutation per molecule in the heavy chain variable regions. Clones were screened for off-rate (dissociation rate) by SPR in a Biacore™ 8K instrument using anti-human Fab chips to capture mutant IgGs and soluble monomeric TREM2 as ligand.

154-164 = target: T5, 154-164 (also: biotinylated (site not given here)); test: ELISA: biotinylated peptide captured on streptavidin plate, antibody detected with anti-mouse IgG-HRP
T5 construct: member of the group m13; also called hTREM2 stalk 154-164
T5 peptide: HVEHSISRSLL
Excerpt: (§1) The antibody epitopes were mapped to the stalk region of human TREM2 using enzyme-linked immunosorbent assay (ELISA). Overlapping biotinylated peptides were captured in ELISA plates coated with streptavidin. The binding of antibodies to peptides was detected with an anti-mouse IgG conjugated to horseradish peroxidase.

[7] = target: T6, hTREM2 stalk peptide residues 129-175 (human, biotinylated); test: as above
T6 construct: also called human TREM2 stalk peptide
T6 peptide: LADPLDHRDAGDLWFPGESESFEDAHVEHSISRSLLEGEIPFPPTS
Excerpt: as §1

139-158 = target: T7, 139-158 (biotinylated (site not given)); test: as above
T7 construct: member of the group m13
T7 peptide: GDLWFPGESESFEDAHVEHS
Excerpt: as §1

152-161 = target: T8, 152-161 (also: biotinylated (site not given here)); test: as above
T8 construct: member of the group m13
T8 peptide: DAHVEHSISR
Excerpt: as §1

[8] = target: T9, hTREM2 stalk peptide 151-165 (human, also: biotinylated (position not given here)); test: as above
T9 peptide: EDAHVEHSISRSLLE
Excerpt: as §1

[9] = target: T10, hTREM2 stalk peptide 146-169 (human, biotinylated); test: as above
T10 peptide: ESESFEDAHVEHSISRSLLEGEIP
Excerpt: as §1

159-175 = target: T11, 159-175 (also: biotinylated (site not given here)); test: as above
T11 construct: member of the group m13
T11 peptide: ISRSLLEGEIPFPPTSI
Excerpt: as §1

129-148 = target: T12, 129-148 (biotinylated (site not given)); test: as above
T12 construct: member of the group m13
T12 peptide: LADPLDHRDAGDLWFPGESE
Excerpt: as §1

[10] = target: T13, hTREM2 stalk peptide 146-161 (human, also: biotinylated (site not given here)); test: as above
T13 peptide: ESESFEDAHVEHSISR
Excerpt: as §1

155-169 = target: T14, 155-169 (also: biotinylated (site not given here)); test: as above
T14 construct: member of the group m13
T14 peptide: VEHSISRSLLEGEIP
Excerpt: as §1

[11] = target: T15, hTREM2 stalk peptide 149-168 (human, biotinylated); test: as above
T15 peptide: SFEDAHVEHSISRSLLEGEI
Excerpt: as §1

[12] = target: T16, cynomolgus TREM2 stalk antigen (cynomolgus monkey, UniProt A0A2K5UY34 159-204, not fully specified); test: SPR (Biacore T200), 37 C; TREM2 stalk antigen on anti-human IgG1 Fc chip, antibody in solution
T16 construct: domain: stalk
T16 chain: T6 peptide with F15V
Description: (§2) Forty-six rat anti-human antibodies were tested for binding affinity to the hTREM2 and cynomolgus TREM2 stalk. Antibody binding affinities for hTREM2 stalk and cynomolgus TREM2 stalk were measured by surface plasmon resonance (SPR) using a Biacore™ T200 apparatus. TREM2 stalk antigens (human or cynomolgus) were immobilized on anti-human IgG1 Fc Biacore™ chips and anti-TREM2 antibody clones were bound to immobilized TREM2 at 37° C. Binding affinities, KD (nM) were measured and recorded.
(§3) Several antibodies were selected for binding measurements against cynomolgus TREM2 stalk. […] These four antibodies are referred to collectively below as the “3.10C2 group” of antibodies.

hTREM2 stalk antigen = target: T17, hTREM2 stalk antigen (human, UniProt Q9NZC2 129-174); test: as above
T17 construct: also called human TREM2 stalk
T17 chain: T6 peptide
Description: as §2, §3

B1: hPara.09.v2 Q100P (antibody, V domains shown)
VH: EVQLVESGGGLVQPGGSLKLSCATSGFPFSNVWLHWVRQASGKGPEWVAHIKAKSDNYATYYAESVKGRFTISRDDSKNTVYLQMNSLKTEDTAVYYCTDILEYWGQGTLVTVSS
VL: DVVMTQSPLSLPVTPGEPASISCRSSRSLLTSKGITSLYWYLQKPGQSPQLLIYRMSNLASGIPDRFSGSGSGTDFTLKISRVEAEDVGVYYCAQFLVYPYTFGPGTKVEIK
notes: Human IgG1 N297G in the cell assays; also called huPara.09.v2 Q100P; hPara.09 Q100P
For B1, the “EC50, Jurkat NFAT luciferase reporter cells” value (human TREM2 on cells [1]) was 0.0178 µg/mL, the “IC50, TREM2 shedding inhibition in Jurkat-NFAT reporter cells (sTREM2 ELISA)” value (human TREM2 on cells [1]) was 0.123 µg/mL and the “EC50, average X04 plaque intensity, human iPSC-derived microglia plaque assay (FIG. 24C)” value (human TREM2 on cells [2]) was 500 nM. For the same binder, the “EC50, survival of iPSC-derived microglia (FIG. 23E)” value (human TREM2 on cells [2]) was 0.61 nM, the “EC50, total Abeta plaque intensity, human iPSC-derived microglia plaque assay (FIG. 24B)” value (human TREM2 on cells [2]) was 120 nM and the binding result [3] was “binds”.

B2: h3.10C2.v1 Q100P (antibody, V domains shown)
VH: EVQLVESGGGLVQPGGSLKLSCATSGFPFSNVWMHWVRQASGKGLEWIAHIKAKSDNYATYYAESVKGRFTISRDDSKTTIYLQMNSLKTEDTAVYYCTGLDYWGQGTTVTVSS
VL: B1 VL
notes: also called hu3.10C2.v1 Q100P
B2: binds [3].

B3: control antibody 1.16B8 (antibody, mouse IgG2a, kappa, V domains shown)
VH: EVQLVESGGGLVQPGRSLKLSCAASGFTFSDSAMAWVRQAPKKGLEWVATIIYDTSSTYYRDSVKGRFTISRDNAKSTLYLQMDSLRSEDTATYYCALFGVDVMDAWGQGASVTVSS
VL: DIQMTQTPSSMPASLGERVTISCRASQGISNYLNWYQQKPDGTIKPLIYYTSNLQSGVPSRFSGSGSGTDYSLTISSLEPEDFAMYYCQQYDSSPWTFGGGTKLEIKR
notes: also called CTL; 1.116B8
B3: binds [4].

B4: T93H (antibody, V domains shown)
VH: EVQLVETGGSLVQPGKSLKLTCATSGFPFSNVWMHWVRQSPEKQLEWIAHIKAKSDNYATYYAESVKGRFTISRDDSKTSIYLQMNSLKEDDTAIYYCHGLDYWGQGVMVTVSS
VL: DTVLTQAPLSLSVTPGESASISCRSSKSLLGVRDITSLYWYLQKPGKSPQLLIYRMSNLASGVPDRFSGSGSETDFTLKISEVETEDVGVYYCAQFLRYPYTFGPGTKLELK
In the case of B4, the fold improvement (lower dissociation rate kd) relative to wild-type 3.10C2 [5] is reported as 1.4 fold.

B5: T93E (antibody, V domains shown)
VH: B4 VH with H99E
VL: B4 VL
In the case of B5, the fold improvement (lower dissociation rate kd) relative to wild-type 3.10C2 [5] is reported as 2 fold.

B6: 3.10C2 D101E mutant IgG (antibody, name in Kabat numbering, V domains shown)
VH: B4 VH with H99T, D102E
VL: B4 VL
notes: IgG captured on anti-human Fab chip
B6: no binding [6].

B7: 3.50G1 (rat anti-human TREM2 antibody) (antibody, IgG2a, V domains shown)
VH: B4 VH with E90D, H99T
VL: B4 VL with L11V, S26N, V32I, Y41F, K112Q
notes: Whole IgG
In the case of B7, the “A620 absorbance (ELISA)” value (154-164) is reported as 0.26 A620, the “A620 absorbance (ELISA)” value [7] is reported as 2.13 A620 and the “A620 absorbance (ELISA)” value (139-158) is reported as 0.43 A620. The “A620 absorbance (ELISA)” value (152-161) was 0.14 A620, the “A620 absorbance (ELISA)” value [8] was 2.32 A620 and the “A620 absorbance (ELISA)” value [9] was 1.88 A620. For the same binder, the “A620 absorbance (ELISA)” value (159-175) was 0.08 A620, the “A620 absorbance (ELISA)” value (129-148) was 0.19 A620 and the “A620 absorbance (ELISA)” value [10] was 2.52 A620. The “A620 absorbance (ELISA)” value (155-169) was 0.13 A620, the “A620 absorbance (ELISA)” value [11] was 1.28 A620 and the Kd [12] was 0.57 nM. It also gave a Kd (hTREM2 stalk antigen) of 0.61 nM.

B8: 3.10C2 (rat anti-human TREM2 antibody) (antibody, V domains shown)
VH: B4 VH with H99T
VL: B4 VL
notes: Whole IgG with rat variable regions; also called clone 3.10C2
For B8, the “A620 absorbance (ELISA)” value (154-164) was 0.39 A620, the “A620 absorbance (ELISA)” value [7] was 1.91 A620 and the “A620 absorbance (ELISA)” value (139-158) was 0.37 A620. The “A620 absorbance (ELISA)” value (152-161) was 0.12 A620, the “A620 absorbance (ELISA)” value [8] was 2.52 A620 and the “A620 absorbance (ELISA)” value [9] was 1.65 A620. The “A620 absorbance (ELISA)” value (159-175) was 0.07 A620, the “A620 absorbance (ELISA)” value (129-148) was 0.19 A620 and the “A620 absorbance (ELISA)” value [10] was 2.95 A620. For the same binder, the “A620 absorbance (ELISA)” value (155-169) was 0.13 A620, the “A620 absorbance (ELISA)” value [11] was 2.16 A620 and the Kd [12] was 0.25 nM. It also gave a Kd (hTREM2 stalk antigen) of 0.24 nM.
